Measurements as given in patent US8058240B2, “Biological active ligands of melanocortin receptors” (University of Florida Research Foundation, Inc., priority 2006, dated 2011).
Values belong to the compound of their own block, whether it stands above or below them. Ends that are not written are not given here.

Experiments:
polymorphic hMC4Rs = assay: cAMP based functional bioassay, summary statements for the polymorphic hMC4Rs as a group; format: cell-based, human
C271Y hMC4R [1] = biological target: T1, C271Y hMC4R (Homo sapiens, UniProt P32245, C271Y); assay: cAMP based functional bioassay, agonist stimulation, stably transfected HEK-293 cells; format: cell-based
T1 construct: expressed in transfected cells

S58C hMC4R [2] = biological target: T2, S58C hMC4R (Homo sapiens, UniProt P32245, S58C); assay: as above; format: cell-based; settings: S58C hMC4R as printed; at up to 10^−5 M concentrations
T2 construct: expressed in transfected cells

L106P hMC4R [3] = biological target: T3, L106P hMC4R (Homo sapiens, UniProt P32245, L106P); assay: as above; format: cell-based; settings: HEK293, L106P hMC4R, read-out: stimulation (maximal stimulation less than the forskolin control level)
T3 construct: expressed in transfected cells

wild type (WT) hMC4R = biological target: T4, wild type (WT) hMC4R (Homo sapiens, UniProt P32245); assay: cAMP based functional bioassay, antagonist Schild analysis against agonist MTII; format: cell-based; settings: ± SEM
T4 construct: expressed in transfected cells

S58C hMC4R [4] = biological target: T2, S58C hMC4R; assay: as above; format: cell-based; settings: ± SEM
N97D hMC4R = biological target: T5, N97D hMC4R (Homo sapiens, UniProt P32245, N97D); assay: as above; format: cell-based
T5 construct: expressed in transfected cells

I102S hMC4R = biological target: T6, I102S hMC4R (Homo sapiens, UniProt P32245, I102S); assay: as above; format: cell-based; settings: ± SEM
T6 construct: expressed in transfected cells

L106P hMC4R [5] = biological target: T3, L106P hMC4R; assay: as above; format: cell-based; settings: ± SEM
S127L hMC4R = biological target: T7, S127L hMC4R (Homo sapiens, UniProt P32245, S127L); assay: as above; format: cell-based
T7 construct: expressed in transfected cells

I137T hMC4R = biological target: T8, I137T hMC4R (Homo sapiens, UniProt P32245, I137T); assay: as above; format: cell-based; settings: ± SEM
T8 construct: expressed in transfected cells

T150I hMC4R = biological target: T9, T150I hMC4R (Homo sapiens, UniProt P32245, T150I); assay: as above; format: cell-based; settings: ± SEM
T9 construct: expressed in transfected cells

R165Q hMC4R = biological target: T10, R165Q hMC4R (Homo sapiens, UniProt P32245, R165Q); assay: as above; format: cell-based; settings: ± SEM
T10 construct: expressed in transfected cells

R165W hMC4R = biological target: T11, R165W hMC4R (Homo sapiens, UniProt P32245, R165W); assay: as above; format: cell-based; settings: ± SEM
T11 construct: expressed in transfected cells

G252S hMC4R = biological target: T12, G252S hMC4R (Homo sapiens, UniProt P32245, G252S); assay: as above; format: cell-based; settings: ± SEM
T12 construct: expressed in transfected cells

V253I hMC4R = biological target: T13, V253I hMC4R (Homo sapiens, UniProt P32245, V253I); assay: as above; format: cell-based; settings: ± SEM
T13 construct: expressed in transfected cells

C271Y hMC4R [6] = biological target: T1, C271Y hMC4R; assay: as above; format: cell-based; settings: ± SEM
I301T hMC4R = biological target: T14, I301T hMC4R (Homo sapiens, UniProt P32245, I301T); assay: as above; format: cell-based; settings: ± SEM
T14 construct: expressed in transfected cells

[7] = Schild analysis, agonist MTII, ± SEM

- agonist EC50 potency (polymorphic hMC4Rs; at all these polymorphic hMC4Rs): sub nM to mM
Compound: C[C@@H]1NC(=O)[C@H](CC(N)=O)NC(=O)[C@H](Cc2c[nH]c3ccccc23)NC(=O)[C@H](CCCNC(=N)N)NC(=O)[C@@H](Cc2ccccc2)NC(=O)[C@H](Cc2c[nH]cn2)NC(=O)[C@@H](NC(=O)[C@@H](N)Cc2ccc(O)cc2)CSSC[C@@H](C(=O)N[C@@H](Cc2ccc(O)cc2)C(N)=O)NC(=O)[C@H](Cc2ccccc2)NC1=O [AMW3-130, Tyr-c[Cys-His-DPhe-Arg-Trp-Asn-Ala-Phe-Cys]-Tyr-NH2]
- agonist function at these hMC4Rs (polymorphic hMC4Rs; eleven human MC4R polymorphisms): rescue

- response stimulated (C271Y hMC4R [1]; C271Y hMC4R): maximal response
Compound: CSCC[C@H](NC(=O)[C@H](CCCNC(=N)N)NC(=O)[C@H](Cc1ccc(O)cc1)NC(=O)[C@@H]1CCCN1C(=O)CNC(=O)[C@H](CCC(=O)O)NC(=O)[C@H](CC(=O)O)NC(=O)[C@H](CCCCN)NC(=O)[C@H](CCCCN)NC(=O)[C@H](CCC(=O)O)NC(=O)[C@H](C)N)C(=O)N[C@@H](CCC(=O)O)C(=O)N[C@@H](Cc1c[nH]cn1)C(=O)N[C@@H](Cc1ccccc1)C(=O)N[C@@H](CCCNC(=N)N)C(=O)N[C@@H](Cc1c[nH]c2ccccc12)C(=O)NCC(=O)N[C@@H](CO)C(=O)N1CCC[C@H]1C(=O)N1CCC[C@H]1C(=O)N[C@@H](CCCCN)C(=O)N[C@@H](CC(=O)O)C(=O)O [β-MSH]

- ability to stimulate this receptor (S58C hMC4R [2]): inability
- Emax at 1 µM (L106P hMC4R [3]): 40 to 50%
- Emax at 1 µM (C271Y hMC4R [1]; HEK293, C271Y hMC4R, at 1 μM, read-out: stimulation (maximal stimulation less than the forskolin control level)): 42 to 58%
Compound: SYSMEHFRWGKPVGKKRRPVKYPN [ACTH(1-24)]

- Antagonist pA2 (wild type (WT) hMC4R): 8.28 ± 0.11
- Antagonist pA2 (S58C hMC4R [4]): 8.02 ± 0.13
- antagonist potency relative to the wild type control (N97D hMC4R): statistically significant decreased
- Antagonist pA2 (N97D hMC4R; [7]): 7.44 ± 0.11
- Antagonist pA2 (I102S hMC4R): 8.17 ± 0.10
- Antagonist pA2 (L106P hMC4R [5]): 8.27 ± 0.12
- antagonist potency relative to the wild type control (S127L hMC4R): statistically significant decreased
- Antagonist pA2 (S127L hMC4R; [7]): 7.06 ± 0.16
- Antagonist pA2 (I137T hMC4R): 8.33 ± 0.12
- Antagonist pA2 (T150I hMC4R): 8.34 ± 0.06
- Antagonist pA2 (R165Q hMC4R): 8.57 ± 0.06
- Antagonist pA2 (R165W hMC4R): 8.52 ± 0.17
- Antagonist pA2 (G252S hMC4R): 8.53 ± 0.02
- Antagonist pA2 (V253I hMC4R): 8.41 ± 0.17
- Antagonist pA2 (C271Y hMC4R [6]): 8.45 ± 0.03
- Antagonist pA2 (I301T hMC4R): 8.60 ± 0.07
Compound: hAGRP(87-132): endogenous C-terminal antagonist agouti-related protein ligand, purchased from Peptides International
